Assay results from article PMC9801508, “A Cell-Permeant Nanobody-Based Degrader That Induces Fetal Hemoglobin” (ACS Central Science, 2022).
Where a chain is given by its changes, count along the chain named.

B1: Nanobody wt2D9 (initial hit) (VHH)
VHH: QVQLVESGGGLVQAGGSLRLSCAASGSIFVNNAMGWYRQAPGKERELVAAISASGGSTYYADSVKGRFTISRDNAKNTVYLQMNSLKPEDTAVYYCAADQDVYPYEYWGQGTQVTVSS
notes: initial synthetic nanobody hit of the yeast surface display screen; parent of 2D9 (2D9_V102G): as the chain of PDB 7UTG with V instead of G at 102; source: E. coli
B2: Nanobody 2D9 (2D9_V102G) (VHH)
VHH: B1 VHH with V102G
notes: also called Nb 2D9; source: purified
B3: Nanobody 2D9_W108L (VHH)
VHH: B1 VHH with W108L
notes: wt2D9 is as 2D9 of PDB 7UTG but with V at 102; By its name a single mutant of wt2D9, a sibling of 2D9_V102G; the reversion at 102 against PDB 7UTG is worked out from the names

Columns and labels:
[1] = biological target: T1, BCL11A extended zinc finger domain (exZnF23) (Homo sapiens, UniProt Q9H165); assay: pull-down; wt2D9 and BCL11A (Figure S1b); details in the Supporting Information
T1 construct: Monomeric by SEC-MALS; also called exZnF23A; BCL11A exZnF23; source: E. coli, purified
T1 sequence (Q9H165 whole entry, looked up, the tested form may be a part): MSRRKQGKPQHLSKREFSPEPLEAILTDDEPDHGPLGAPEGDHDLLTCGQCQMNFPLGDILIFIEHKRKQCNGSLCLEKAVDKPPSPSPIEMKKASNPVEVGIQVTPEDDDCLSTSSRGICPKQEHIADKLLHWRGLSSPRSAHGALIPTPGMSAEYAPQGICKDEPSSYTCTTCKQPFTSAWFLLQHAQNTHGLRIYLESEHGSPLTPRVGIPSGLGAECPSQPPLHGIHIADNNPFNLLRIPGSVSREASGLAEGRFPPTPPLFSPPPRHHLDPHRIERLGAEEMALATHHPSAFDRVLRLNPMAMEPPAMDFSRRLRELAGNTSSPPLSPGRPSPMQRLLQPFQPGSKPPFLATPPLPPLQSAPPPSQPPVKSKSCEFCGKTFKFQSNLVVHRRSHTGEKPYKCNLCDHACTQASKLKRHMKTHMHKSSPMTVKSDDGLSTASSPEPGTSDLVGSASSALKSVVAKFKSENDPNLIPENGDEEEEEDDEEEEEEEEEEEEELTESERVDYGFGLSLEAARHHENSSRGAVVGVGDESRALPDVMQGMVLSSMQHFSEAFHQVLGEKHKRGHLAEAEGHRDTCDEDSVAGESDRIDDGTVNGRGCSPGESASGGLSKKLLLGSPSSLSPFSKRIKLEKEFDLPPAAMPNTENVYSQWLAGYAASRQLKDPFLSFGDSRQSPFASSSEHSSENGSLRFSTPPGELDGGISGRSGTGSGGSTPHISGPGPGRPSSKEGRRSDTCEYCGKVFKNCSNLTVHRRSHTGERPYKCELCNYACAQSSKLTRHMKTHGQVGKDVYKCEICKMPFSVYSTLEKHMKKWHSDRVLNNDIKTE

[2] = biological target: T2, endogenous, full-length BCL11A (Homo sapiens (HUDEP-2 cells), UniProt Q9H165); assay: pull-down; purified 2D9 or ZF5.3-2D9 added into the lysate of HUDEP-2 cells; endogenous BCL11A detected (the legend calls it immunoprecipitation); settings: one partner purified
T2 construct: BCL11A, transcription factor and repressor of fetal globin genes, endogenous in HUDEP-2 cells; also called endogenous BCL11A; source: endogenous, HUDEP-2 lysate; endogenous, in HUDEP-2 cells
T2 sequence (Q9H165 whole entry): as the sequence (Q9H165 whole entry, looked up, the tested form may be a part) above

[3] = biological target: T1, BCL11A extended zinc finger domain …; assay: pull-down; read by SDS-PAGE (Figure 1C); the legend names only an SDS-PAGE analysis; who was held is not told; methods in the Supporting Information; settings: both partners purified

Row | Binder | binding result [1] | binding result [2] | binding result [3]
1 | B1 | binds | – | –
2 | B2 | – | binds | binds
3 | B3 | – | – | binds
